Laboratory results taken from article PMC3826915 (Nature medicine, 2013).

B1: Recombinant human cold-inducible RNA-binding protein (rhCIRP) (natural protein, UniProt Q14011-1 1-172, looked up)
chain: MASDEGKLFVGGLSFDTNEQSLEQVFSKYGQISEVVVVKDRETQRSRGFGFVTFENIDDAKDAMMAMNGKSVDGRQIRVDQAGKSSDNRSRGYRGGSAGGRGFFRGGRGRGRGFSRGGGDRGYGGNRFESRSGGYGGSRDYYSSRSQSGGYSDRSSGGSYRDSYDSYATHNE
B2: Recombinant human MD2 (rhMD2), Glu17-Asn160 (natural protein, UniProt Q9Y6Y9 17-160, looked up)
chain: EAQKQYWVCNSSDASISYTYCDKMQYPISINVNPCIELKRSKGLLHIFYIPRRDLKQLYFNLYITVNTMNLPKRKEVICRGSDDDYSFCRALKGETVNTTISFSFKGIKFSKGKYKCVVEAISGSPEEMLFCLEFVILHQPNSN

Columns and labels:
[1] = target: TLR4 (Homo sapiens) (UniProt O00206); details: cited from earlier work
Sequence of TLR4 (Homo sapiens) (O00206 24-631): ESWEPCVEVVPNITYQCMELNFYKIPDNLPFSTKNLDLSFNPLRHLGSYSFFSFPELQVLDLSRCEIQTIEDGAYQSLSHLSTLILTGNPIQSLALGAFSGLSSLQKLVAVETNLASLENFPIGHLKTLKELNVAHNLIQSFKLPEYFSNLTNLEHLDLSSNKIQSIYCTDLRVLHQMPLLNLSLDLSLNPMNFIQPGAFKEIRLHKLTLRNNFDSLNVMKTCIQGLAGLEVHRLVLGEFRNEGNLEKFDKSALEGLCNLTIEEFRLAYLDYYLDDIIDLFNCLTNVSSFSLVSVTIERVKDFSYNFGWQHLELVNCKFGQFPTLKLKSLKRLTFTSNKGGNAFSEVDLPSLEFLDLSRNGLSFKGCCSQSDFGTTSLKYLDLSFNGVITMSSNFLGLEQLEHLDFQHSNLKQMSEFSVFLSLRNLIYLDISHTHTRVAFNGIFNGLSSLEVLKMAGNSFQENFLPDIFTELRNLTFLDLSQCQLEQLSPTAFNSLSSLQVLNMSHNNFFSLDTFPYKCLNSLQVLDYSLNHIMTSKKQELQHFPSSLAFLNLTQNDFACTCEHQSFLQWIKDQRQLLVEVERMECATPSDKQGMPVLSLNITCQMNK

[2] = target: TLR4/MD2 (Homo sapiens) (UniProt O00206); assay: SPR; details: cited from earlier work
Sequence of TLR4/MD2 (Homo sapiens) (O00206 24-839): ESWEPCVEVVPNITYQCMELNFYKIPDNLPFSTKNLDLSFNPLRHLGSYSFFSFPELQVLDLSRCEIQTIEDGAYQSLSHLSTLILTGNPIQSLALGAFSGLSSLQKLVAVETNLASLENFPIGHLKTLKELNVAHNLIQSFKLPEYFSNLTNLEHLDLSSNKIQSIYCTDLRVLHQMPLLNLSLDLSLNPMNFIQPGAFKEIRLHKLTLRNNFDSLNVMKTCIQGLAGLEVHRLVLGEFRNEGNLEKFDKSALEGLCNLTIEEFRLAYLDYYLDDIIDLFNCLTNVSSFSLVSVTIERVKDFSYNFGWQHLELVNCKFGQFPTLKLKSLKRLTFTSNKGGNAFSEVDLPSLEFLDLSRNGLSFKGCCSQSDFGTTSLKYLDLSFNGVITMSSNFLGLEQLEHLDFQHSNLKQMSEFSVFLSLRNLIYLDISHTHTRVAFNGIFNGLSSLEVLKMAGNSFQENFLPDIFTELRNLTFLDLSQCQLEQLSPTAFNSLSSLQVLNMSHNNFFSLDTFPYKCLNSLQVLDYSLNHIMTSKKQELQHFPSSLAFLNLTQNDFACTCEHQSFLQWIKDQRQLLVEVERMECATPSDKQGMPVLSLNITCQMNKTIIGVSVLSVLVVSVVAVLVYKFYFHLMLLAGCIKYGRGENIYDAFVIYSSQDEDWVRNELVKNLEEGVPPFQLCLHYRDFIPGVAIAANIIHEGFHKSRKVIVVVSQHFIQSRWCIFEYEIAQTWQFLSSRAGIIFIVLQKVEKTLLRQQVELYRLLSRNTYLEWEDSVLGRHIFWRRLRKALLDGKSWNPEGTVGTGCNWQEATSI

[3] = target: MD2 (Homo sapiens) (UniProt Q9Y6Y9); details: cited from earlier work
[4] = target: Recombinant human TLR2 (rhTLR2), Glu21-Leu590 (human, UniProt O60603 21-590); assay: SPR
Sequence of Recombinant human TLR2 (rhTLR2), Glu21-Leu590 (O60603 21-590): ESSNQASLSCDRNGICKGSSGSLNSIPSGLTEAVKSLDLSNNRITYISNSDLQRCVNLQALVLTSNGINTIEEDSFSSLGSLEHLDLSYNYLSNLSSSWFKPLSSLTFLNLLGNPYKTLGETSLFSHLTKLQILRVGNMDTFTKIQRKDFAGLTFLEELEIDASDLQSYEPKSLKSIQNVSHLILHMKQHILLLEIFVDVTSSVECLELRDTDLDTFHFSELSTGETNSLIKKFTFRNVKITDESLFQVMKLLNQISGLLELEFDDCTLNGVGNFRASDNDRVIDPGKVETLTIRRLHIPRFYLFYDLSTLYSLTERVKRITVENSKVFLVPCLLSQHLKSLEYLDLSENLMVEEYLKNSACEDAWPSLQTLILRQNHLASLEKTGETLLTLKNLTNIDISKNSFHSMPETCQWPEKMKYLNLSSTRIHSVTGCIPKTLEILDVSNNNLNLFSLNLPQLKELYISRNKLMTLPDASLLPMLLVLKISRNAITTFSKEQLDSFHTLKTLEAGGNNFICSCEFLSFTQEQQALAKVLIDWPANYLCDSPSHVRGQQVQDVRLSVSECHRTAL

[5] = target: Recombinant human RAGE (rhRAGE), Ala23-Ala344 (human, UniProt Q15109 23-344); assay: SPR
Sequence of Recombinant human RAGE (rhRAGE), Ala23-Ala344 (Q15109 23-344): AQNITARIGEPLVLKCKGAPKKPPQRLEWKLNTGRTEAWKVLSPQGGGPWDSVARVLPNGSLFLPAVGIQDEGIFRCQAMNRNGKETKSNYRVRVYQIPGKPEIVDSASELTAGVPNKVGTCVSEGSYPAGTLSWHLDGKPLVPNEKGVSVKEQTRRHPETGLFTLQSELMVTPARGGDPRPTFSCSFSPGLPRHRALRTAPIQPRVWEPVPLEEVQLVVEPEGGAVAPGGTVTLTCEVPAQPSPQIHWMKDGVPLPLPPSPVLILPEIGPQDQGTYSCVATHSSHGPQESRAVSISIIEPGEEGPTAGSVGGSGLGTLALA

[6] = target: Recombinant human TLR4/MD2 complex (rhTLR4/MD2) (human, UniProt O00206 24-631; Q9Y6Y9 17-160); assay: SPR
Sequence of Recombinant human TLR4/MD2 complex (rhTLR4/MD2) (O00206 24-631, one chain of several): as the sequence (O00206 24-631) above

[7] = target: Recombinant human TLR4 (rhTLR4), Glu24-Lys631 (human, UniProt O00206 24-631); assay: SPR
Sequence of Recombinant human TLR4 (rhTLR4), Glu24-Lys631 (O00206 24-631): as above

[8] = target: B1; assay: SPR

In the case of MD2 (from UniProt Q9Y6Y9), the Kd [1] is given as 62.9 nM.

In the case of HMGB1 (from UniProt P09429), the Kd [2] is listed as 1500 nM and the Kd [3] is listed as 8 nM.

Work on B1 yielded a Kd [4] of 258 nM, a Kd [5] of 33.1 nM and a Kd [6] of 239 nM. The Kd [7] was 617 nM.

With B2 the Kd [8] was 302 nM and the Kd [7] was 53.7 nM.
